Residue numbers refer to the chain shown, from its start.

Experimental findings from patent US20190284297A1 (NOVIMMUNE, published 2019) are described below.

Sequences and labels used below:
B1: IgG 1D8 (antibody, V domains shown)
VH: EVQLVESGGGLVQPGGSLKLSCAASGFTFNTYAMNWVRQAPGKGLEWVGRIRSKYNNYATYYADSVKDRFTISRDDSKNTAYLQMNSLKTEDTAVYYCVRHGNFGNSYVSWFAYWGQGTLVTVSS
VL: QTVVTQEPSLTVSPGGTVTLTCRSSTGAVTTSNYANWFQQKPGQAPRGLIGGTNKRAPGTPARFSGSLLGGKAALTLSGAQPEDEAEYYCALWYDGTWVFGGGTKLTVL
notes: also called L3sp34-G1-1-R2-P1_D8
B2: IgG 1F8 (antibody, V domains shown)
VH: B1 VH
VL: B1 VL with T97K
notes: also called L3sp34-G1-2-R2-P1_F8
B3: IgG 1A10 (antibody, V domains shown)
VH: B1 VH
VL: B1 VL with D95K, T97Y
notes: also called L3sp34-G1-2-R2-P1_A10
B4: IgG 1B6 (antibody, V domains shown)
VH: B1 VH
VL: B1 VL with D95A, G96N, T97R
notes: also called L3sp34-G1-1-R2-P1_B6
B5: IgG 1A4 (antibody, V domains shown)
VH: B1 VH
VL: B1 VL with D95K, G96Q, T97R
notes: also called L3sp34-G1-2-R2-P1_A4
B6: IgG 1A11 (antibody, V domains shown)
VH: B1 VH
VL: B1 VL with T97W
notes: also called L3sp34-G1-1-R2-P1_A11

In one assay the target is T1, human CD3ε on T cells (Jurkat T cell line; CD4+ and CD8+ T cells from healthy human donors) (human, UniProt P07766 23-207).
T1 construct: whole, on cells
T1 sequence (P07766 23-207): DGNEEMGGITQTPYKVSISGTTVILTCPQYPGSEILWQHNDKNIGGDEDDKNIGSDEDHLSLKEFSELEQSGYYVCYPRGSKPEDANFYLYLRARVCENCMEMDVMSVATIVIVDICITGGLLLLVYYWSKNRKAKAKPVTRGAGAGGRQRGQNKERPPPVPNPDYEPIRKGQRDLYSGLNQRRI
Kind of assay: FACS on CD4+ T cells from PBMCs of healthy donors, antibody at 0.1 µg/ml. As to the method: (§1) Binding was also evaluated by FACS on different cell populations including T cell lines and natural cell populations derived from healthy blood donors. First, control and antiCD3ε candidates were tested at different concentration on the human T cell line Jurkat. […] Binding to native cell populations was performed by isolating PBMCs from healthy donors and evaluating binding to CD4+ and CD8+ T cells as well as B cells.
Regarding B1, the “MFI on CD4+ T cells” value was 286 MFI.

Regarding B2, the “MFI on CD4+ T cells” value is 284 MFI.

As for B3, the “MFI on CD4+ T cells” value worked out at 96 MFI.

B4: the “MFI on CD4+ T cells” value came to 231 MFI.

B5: the “MFI on CD4+ T cells” value amounted to 284 MFI.

With B6, the “MFI on CD4+ T cells” value worked out at 205 MFI.

The next assay has as its target T1, human CD3ε on T cells (Jurkat T cell …). Kind of assay: FACS on CD8+ T cells from PBMCs of healthy donors, antibody at 0.1 µg/ml. As to the method:
as §1
Turning to B1, the “MFI on CD8+ T cells” value stood at 161 MFI.

Take B2: the “MFI on CD8+ T cells” value worked out at 157 MFI.

As for B3, the “MFI on CD8+ T cells” value came out at 43 MFI.

As to B4, the “MFI on CD8+ T cells” value was 130 MFI.

As to B5, the “MFI on CD8+ T cells” value came out at 173 MFI.

Consider B6, for which the “MFI on CD8+ T cells” value turned out to be 119 MFI.
